A short description of this data set: soluble on expression in E. coli; label from the status in PepcDB or PDB records.
On to “MISDSKLLASAAWDAQSLNELKAKASEDPAANIRPVARQVEGMFVQMMLKSMRDALPKDGLFSSEHTRLYTSMYDQQIAQQMTAGKGLGLAEMMVKQMTPEQPLPEESTPAAPMKFPLETVVRYQNQTLSQLVQKAVPRNYDDSLPGDSRAFLAQLSLPAQLASQQSGVPHHLILAQAALESGWGQRQIRRENGEPSYNLFGVKASGNWKGQVTEITTTEYENGEAKKVKAKFRVYSSYLEALSDYVGLLTRNPRYAAVTTAASAEQGAQVLQDAGYATDPHYARKLTNMIQQMKSISDKVSKTYSMNIDNLF”, for which the “soluble on expression in E. coli” value is listed as “not soluble”. As to “AEPAGRQRPRREPEAMDEQSVESIAEVFRCFICMEKLRDARLCPHCSKLCCFSCIRRWLTEQRAQCPHCRAPLQLRELVNCRWAEEVTQQLDTLQLCSLTKHEENEKDKCENHHEKLSVFCWTCKKCICHQCALWGGMHGGHTFKPLAEIYEQHVTKVNEEVAKLRRRLMELISLVQEVERNVEAVRNAKDERVREIRNAVEMMIARLDTQLKNKLITLMGQKTSLTQETELLESLLQEVEHQLRSCSKSELISKSSEILMMFQQVHRKPMASFVTTPVPPDFTSELVPSYDSATFVLENFSTLRQRADPVYSPPLQVSGLCWRLKVYPDGNGVVRGYYLSVFLELSAGLPETSKYEYRVEMVHQSCNDPTKNIIREFASDFEVGECWGYNRFFRLDLLANEGYLNPQNDTVILRFQVRSPTFFQKSRDQHWYITQLEAAQTSYIQQINNLKERLTIELSRTQKSRDLSPPDNHLSPQNDDALETRAKKSACSDMLLEGGPTTASVREAKEDEEDEEKIQNEDYHHELSDGDLDLDLVYEDEVNQLDGSSSSASSTATSNTEENDIDEETMSGENDVEYNNMELEEGELMEDAAAAGPAGSSHGYVGSSSRISRRTHLCSAATSSLLDIDPLILIHLLDLKDRSSIENLWGLQPRPPASLLQPTASYSRKDKDQRKQQAMWRVPSDLKMLKRLKTQMAEVRCMKTDVKNTLSEIKSSSAASGDMQTSLFSADQAALAACGTENSGRLQDLGMELLAKSSVANCYIRNSTNKKSNSPKPARSSVAGSLSLRRAVDPGENSRSKGDCQTLSEGSPGSSQSGSRHSSPRALIHGSIGDILPKTEDRQCKALDSDAVVVAVFSGLPAVEKRRKMVTLGANAKGGHLEGLQMTDLENNSETGELQPVLPEGASAAPEEGMSSDSDIECDTENEEQEEHTSVGGFHDSFMVMTQPPDEDTHSSFPDGEQIGPEDLSFNTDENSGR”, the “soluble on expression in E. coli” value is listed as “soluble”.

Regarding “MAAQRIRAANASGLPRCKSEGTLIDLSEGFSETSFNDVKVPSPSALLVDNPTPFGNAKEVIAIKDYCPNNFTTLKFSKGDHLYVLDTSGGEWWYAHNTTEMGYIPSSYVQPLNYRNSTLSDSGMIDNLPDSPEEVAKELDLLGGGWTDDQKESGRPYSNNPFWNGVRTNPFLNGNAQPSTDELNPKSTVDLLLFDTGTSSFTESSSATTNSTGNIFDELPATNGLQVEQPVKRDNPFFRSKRSYSLSELSVLQAKSDAPPTSSFFTGLKSPVPEQFQSREDFRTAWLNHRKLARSCHDLDLLGQSPGWGQTQAVETNIVCKLDSSGGSVQLPDTNISIHVPEGHVAPGETQQISMKALLDPPLDLNSDRSTSVSPVVEVKLSNLEVSTFIILEMKVSAEVKGDIFSKSTVVLQCLRSDSKEGPYVPIPLAYSYGDTIQVQLDNLEPCMYLAIVAQGPNILYPSTVWDFINKRVTVGLYGPKHIHPSFKTVVTIFGHDCAPKTLLVSEVTRQAPSPAPVALQLWGKHQFILSRPQDLRVCMFSNMTNYEVKANEQARVVRGFQMKLGKVSRLIFSVISQNPNELSDFTLRVQVKDDQDTILTQFCVQTPQPPPKSAIKPSGQRRFLKKNEVGKIILSPFVVTTKYPTFQDRPVSSLKFGKLLKTVVRQNKSHYLLEYKKGDVVALLSEERIRLKGQLWTKEWYIGYYQGKVGLVHTKNVLVVGKARPSLFSGPELSTSVLLEQILRPCKFLTYIYASVRTLLMENISSWRAFADALGYGNLPLTFFCRAELDSEPERVASVLEKLKEDCNNPDNKDRKSFQKELVMALLKMDCQGLVVRLIQDFVLLTTAVEVAQRWRELAEKLAKVSKQQMDAYESPHRDRNGVVDSEAMWKPAYDFLLTWSHQIGDSYRDVIQELHIGLDKMKNPITRRWKHLTGTLILVNSLDILRAAAFSPADHDDFVI”, the “soluble on expression in E. coli” value was “soluble”.

As for “MDSPIINEQFWDALFFNGTMPWDRSQTPNELKHYLKRIADKTHSVFIPGCGAAYEVSHFVDCGHDVIAMDYSAEAVNLAKSQLGQHQDKVMLGDVFNADFSREFDVIYERAFLAALPREIWGDYFAMIERLLPSNGLLVGYFVISDDYRSRFPPFCLRSGEIEQKLEANFHLIESTPVTDSVDVFKGKEQWMVWQKLEHHHHHH”, the “soluble on expression in E. coli” value is on record as “not soluble”. The same measure for “AQQAEWRSWEVNKRLEYSLVKGITEFIEQDTEEARQQATRPCEVIEGPLMDGMNVVGDLFGEGKMFLPQVVKSARVMKQAVAYLEPFIEASKEQCKTNGKMVIATVKGDVHDIGKNIVGVVLQCNNYEIVDLGVMVPAEKILRTAKEVNADLIGLSGLITPSLDEMVNVAKEMERQGFTIPLLIGGATTSKAHTAVKIEQNYSGPTVYVQNASRTVGVVAALLSDTQRDDFVARTRKEYETVRIQHGRKKPRTPPVTLEAARDNDFAFDWQAYTPPVAHRLGVQEVEASIETLRNYIDWTPFFMTWSLAGKYPRILEDEVVGVEAQRLFKDANDMLDKLSAEKTLNPRGVVGLFPANRVGDDIEIYRDETRTHVINVSHHLRQQTEKTGFANYCLADFVAPKLSGKADYIGAFAVTGGLEEDALADAFEAQHDDYNKIMVKALADRLAEAFAEYLHERVRKVYWGYAPNENLSNEELIRENYQGIRPAPGYPACPEHTEKATIWELLEVEKHTGMKLTESFAMWPGASVSGWYFSHPDSKYYAVAQIQRDQVEDYARRKGMSVTEVERWLAPNLGYDAD”: “soluble”; for “MSKEDFVIKPEAAGASTDTSEWPLLLKNFDKLLVRSGHYTPIPAGSSPLKRDLKSYISSGVINLDKPSNPSSHEVVAWIKRILRCEKTGHSGTLDPKVTGCLIVCIDRATRLVKSQQGAGKEYVCIVRLHDALKDEKDLGRSLENLTGALFQRPPLISAVKRQLRVRTIYESNLIEFDNKRNLGVFWASCEAGTYMRTLCVHLGMLLGVGGHMQELRRVRSGALSENDNMVTLHDVMDAQWVYDNTRDESYLRSIIQPLETLLVGYKRIVVKDSAVNAVCYGAKLMIPGLLRYEEGIELYDEIVLITTKGEAIAVAIAQMSTVDLASCDHGVVASVKRCIMERDLYPRRWGLGPVAQKKKQMKADGKLDKYGRVNENTPEQWKKEYVPLDNAEQSTSSSQETKETEEEPKKAKEDSLIKEVETEKEEVKEDDSKKEKKEKKDKKEKKEKKEKKDKKEKKEKKEKKRKSEDGDSEEKKSKKSKK”: “not soluble”. Then “MSSKSTKRAKIEDPKDNVFMVEKVLDKRTGKAGRDEFLIQWQGFPESDSSWEPRENLQCVEMLDEFEREFSKREKPIRKRHSQKPEPSEDQADPEEDKDEKKETNQNDKFSLEGKQLKCIVGLTKGPGELHFLCKFSDDTARLLPAKEVNSRYRPFVDAYGEFLKKKMERRHKRISEGKKKRSIEEDDADDEWPEMPPGHRILTTEEHELQRRKESKISQDVEMTEAFQQTAADMLNDMHMAANGDLLSSFPQDFLEDSGDGEVHEAAILSVFDDNSNSPPPCPIVVDTVPDDDDSLLFPRNS”, with “soluble”; and “MEEAKQKVVDFLNSKSGSKSKFYFNDFTDLFPDMKQREVKKILTALVNDEVLEYWSSGSTTMYGLKGAGKQAAAEHED”, with “soluble”; and “MGSDKIHHHHHHMNHNLTTLHPYPFAKMATLLADSTPAHSYDEIKLGIGEPKHAPPAFVLDVLRENLDKISHYPTTNGLFELRQTIAHWLEKRFFLNHVNPNTQVLPVMGTREAIFSIVQAVINHQTETISQTATLNQSPVVVMPNPFYQIYEGAAILAQATPYFIPCTADNGFKGDFRSVPKDVWMRTQLLFVCSPNNPTGSVMTMDDWEQLLRLSDQYGFIIASDECYSELYFDKAPIGLLQACAALGRHDFKNCLVFHSLSKRSNLPGLRSGFVAGDATILDSYLQYRTYQGCAMPIPHQLASIAAWEDEKHVAHNRALYQEKFALWMSELGALLDLRMPEAGFYFWIKAPEQFDGDDELFVKALYEHANIHALAGRYLSREVNGKNPGQGYVRIALVASVEESREAIRRIRQLLGA”, with “not soluble”. As to “MGSDKIHHHHHHMNRSTRSHKAIVIFSGGQDSTTCLFQAIQEFKRENVEVITFQYGQRHSIELEKAAWIAQNLGIKQTVIDTSVIKAITTNALITEATIKQDGDKPNTFVDGRNALFLLYTAIYAKGQGIQTIFTGVCETDFSGYPDCRDIFIKSMNVTLNLAMDYNFNIRTPLMYLTKKQTWALADQLGAFEYVREHTHTCYLGVEGGCHTCPSCLLREKGLNEYLAEKSGEKNV”, the “soluble on expression in E. coli” value was “not soluble”. Then “MSFTTISVIGLGYIGLPTAAAFASRQKQVIGVDINQHAVDIINRGEIHIVEPALGNVVKMAVEGGFLRATTTPVEADAYLIAVPTPFKGDHDPDMAYVEAAAKSIAPVLKKGALVILESTSPVGATEQMAGWLAGMRTDLTFPQQAGEQADVNIAYCPERVLPGQVMVELIKNDRVIGGMTPVCSARASALYKIFLEGECVVTNSRTAEMCKLTENSFRDVNIAFANELSLICAEQGINVWELIRLANRHPRVNILQPGPGVGGHCIAVDPWFIVAQNPQQARLIRTAREVNDGKPHWVVDQVKAAVTDCLAATDKRASEVKIACFGLAFKPNIDDLRESPAMGIAQSIARWHSGETLVVEPNIRQLPKKLDGLCTLAKLDAALAAADVLVMLVDHDEFKAIPGDAVHQRYVVDTKGVWR”, with “soluble”.

For the origin of these results see the DeepSol protein solubility set.
